Data on two substances can be found in publication PMC9210341.

Holding throughout (assay): SPR
In general terms: In SPR one partner is held on a chip, and binding of the other changes the refractive index at the surface.

The target in assay [1] is equine angiotensin converting enzyme 2 (residues 19-615) (horse (equine)).
Assay [2] concerns the target SARS-CoV-2 Beta variant receptor binding domain (residues 319-541) (SARS-CoV-2 (Beta variant)) (UniProt P0DTC2).
The target in assay [3] is SARS-CoV-2 Delta variant receptor binding domain (residues 319-541) (SARS-CoV-2 (Delta variant)) (UniProt P0DTC2).

Turning to “SARS-CoV-2 prototype receptor binding domain (residues 319-541) (from UniProt P0DTC2 319-541) (domain or fragment)”, the fold lower affinity than hACE2 with the SARS-COV-2 PT-RBD in assay [1] was determined as 32.2 fold.
“equine angiotensin converting enzyme 2 (residues 19-615) (from UniProt A0A9L0TPT7 19-615) (receptor)”: the fold decrease in affinity against the SARS-CoV-2 PT-RBD in assay [2] was 4.1 fold; in assay [3], 2 fold.
